Laboratory results published in US20110262445A1 (CEPHALON AUSTRALIA, published 2011).
One block for each binder: values may come before it.

Tests used:
human IL-23 [1] = target: T1, human IL-23 (human, UniProt P29460 23-328; Q9NPF7 20-189); assay: SPR, IgG
T1 construct: Recombinant (Ebioscience); HIS-tagged in flow cytometry, biotinylated in some assays; also called hIL-23; rhIL-23
T1 sequence 1: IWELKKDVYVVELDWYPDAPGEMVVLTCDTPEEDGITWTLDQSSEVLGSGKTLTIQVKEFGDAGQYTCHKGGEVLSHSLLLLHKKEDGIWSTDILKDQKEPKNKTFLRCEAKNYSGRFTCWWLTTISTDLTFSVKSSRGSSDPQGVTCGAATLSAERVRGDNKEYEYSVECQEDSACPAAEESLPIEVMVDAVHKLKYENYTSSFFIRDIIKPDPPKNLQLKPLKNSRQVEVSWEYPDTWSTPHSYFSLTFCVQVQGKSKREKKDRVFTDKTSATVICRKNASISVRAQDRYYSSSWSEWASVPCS
T1 sequence 2: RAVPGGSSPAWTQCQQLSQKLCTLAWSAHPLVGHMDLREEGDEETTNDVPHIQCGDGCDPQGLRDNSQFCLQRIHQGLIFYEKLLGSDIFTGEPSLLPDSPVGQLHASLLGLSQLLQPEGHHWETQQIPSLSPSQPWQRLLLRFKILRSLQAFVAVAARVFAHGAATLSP
Experimental: (§1) CU-A6 was converted to Antibody 183, CP-A6 was converted to Antibody 184 and AW-F2 was converted to Antibody 207 by addition of a human heavy chain Fc region (SEQ ID NO: 8) and a constant kappa light chain region (SEQ ID NO: 9). IgG molecules were expressed by co-transfecting the heavy and light chain construct for each antibody into HEK 293E cultures. The expressed IgGs were purified by affinity chromatography and gel exclusion and the resulting monomeric molecules were tested for IL-12 and IL-23 binding by SPR (TABLE 6). All three IgG variants retained binding activity against both analytes with a visible improvement in kd compared to the parental wild-type IgG. Based on this, it is reasonable to expect that scFv variants described in TABLE 4 could be converted to the IgG format and retain improved binding characteristics against IL-12 and IL-23.
(§2) Using a SPR 3000, Protein A was immobilized onto FC1 and FC2 (or alternatively FC3 and FC4) of a CM5 research grade sensor chip using amine coupling, giving approximately […] RU. FC1 was used a blank throughout the experiments. The experiments were run in HBS-P buffer (SPR). At a flow rate of 20 μl/min, 20 μl of 5 μg/mL of antibody was passed over FC2. IL-12, IL-23 or IL-12p40 (Peprotech) were passed over the surface of FC1 and FC2 at concentrations ranging from 66 nM to 2 nM. Regeneration of the surface was performed using 10 mM Glycine, pH 1.0. The sensorgram data from FC2 was subtracted from FC1 and a buffer only control. The curves were fitted using a 1:1 Langmuir equation to generate the kd, ka and KD values. All curves were fitted with a χ² of less then 2.0 where possible.

human IL-12 [2] = target: T2, human IL-12 (human, UniProt P29460 23-328; P29459 23-219); assay: SPR, IgG
T2 construct: Recombinant (Peprotech); FLAG-tagged IL-12 in the flow cytometry assays, biotinylated in the IL-12Rβ2 assay; also called hIL-12
T2 sequence 1: T1 sequence 1
T2 sequence 2: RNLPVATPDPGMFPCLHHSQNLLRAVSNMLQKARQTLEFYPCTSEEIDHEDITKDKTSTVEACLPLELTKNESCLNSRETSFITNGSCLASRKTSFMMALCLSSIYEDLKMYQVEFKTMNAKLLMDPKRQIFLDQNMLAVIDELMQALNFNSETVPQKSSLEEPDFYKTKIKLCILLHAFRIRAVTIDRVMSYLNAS
Experimental: as §1, §2

human IL-23 [3] = target: T1, human IL-23; assay: SPR, IgG; LOD estimated 1 × 10^-5 s^-1
Antibody 136 [4] = target: T3, Antibody 136; assay: SPR control: PMA202 injected over Antibody 136 captured on Protein A, no cytokine
T3 construct: Humanized PMA204 (1RZ7 framework)
Experimental: (§3) Protein A (Thermo) was immobilized onto a CM5 sensor chip using a BIAcore 3000. Chimeric or humanized antibody at 5 ug/mL in HBS-P (GE Healthcare) was then injected for 1 min at a flow rate of 20 ul/min. IL-12 or IL-23 was then injected over the surface at 5 ug/mL in HBS-P for 1 min at a flow rate of 20 ul/min. Murine antibody was then injected at 5 ug/mL in HBS-P for 1 min at a flow rate of 20 ul/min. Controls in which IL-12 or IL-23 was replaced with HBS-P, and in which the murine antibody was replaced with HBS-P were also performed. All data was substrated from a control run in which IL-12 or IL-23 or the murine antibody was tested for background binding to the Protein A surface.

human IL-12 [5] = target: T2, human IL-12; assay: ELISA, coated IL-12
Experimental: (§4) IL-12 (Peprotech), IL-23 (Ebioscience™), IL-12p40 (Ebioscience™) or IL-12p80 (Peprotech), was diluted to 1 μg/mL in carbonate coating buffer ([…] pH 9.6) and coated onto a 96 well plate (Nunc™, Maxisorp™) overnight at 4° C. The plate was then washed three times with wash buffer (0.01M PBS pH 7.2, 0.05% Tween-20) and then three times with 0.01M PBS pH 7.2. The wells were then blocked by adding 200 μl of blocking buffer (1% w/v BSA in 0.01 M PBS pH 7.2) to each well and incubating the plate at 25° C. for 1 hour. The antibody was diluted in antibody diluent (1% w/v BSA, 0.05% Tween-20 in 0.01M PBS pH 7.2) sufficient to generate a titration curve. The wells were incubated with the antibody for 1 hour at 25° C. The plate was then washed as previously described. Goat anti-human immunoglobulin G (H+L) antibody HRP conjugate (Zymed®) at 1:2000 in antibody diluent was used to detect bound primary antibody. Goat anti-murine immunoglobulin antibody HRP conjugate (Dako) at 1:2000 in antibody diluent was used to detect bound murine antibody. After incubation at 25° C. for 1 hour the plate was washed again as previously described. TMB substrate solution (Zymed®) was added to each well and the colour allowed to develop; the reaction was terminated by adding 1M HCl to the wells. The absorbance of each well was determined at 450 nm (ref. 620 nm).

human IL-23 [6] = target: T1, human IL-23; assay: ELISA, coated IL-23
Experimental: as §4

human IL-23 [7] = target: T1, human IL-23; assay: neutralization ELISA: IL-23 preincubated with antibody, its binding to coated IL-23R is blocked
Outline: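 The IC50 was taken from a curve in a plate assay in which biotinylated IL-23, preincubated with titrated antibody, bound His-tagged IL-23R coated on the wells. The receptor, made in HEK-293E cells, was coated in carbonate buffer overnight at 4° C and blocked with 1% BSA. The IL-23 was used at 50 ng/ml, and the IL-23 and antibody mix stayed in the wells for 2 hours at 25° C. Signal came from Streptavidin HRP at 1:5000 with TMB, read at 450 nm with a 620 nm reference.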

human IL-12 [8] = target: T2, human IL-12; assay: neutralization ELISA: IL-12 preincubated with antibody, its binding to coated IL-12Rβ2/Fc is blocked
Outline: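 IL-12Rβ2/Fc chimera at 5 ug/ml in carbonate buffer was coated overnight at 4° C and blocked with 1% BSA for 1 hour at 25° C. Biotinylated IL-12 was preincubated with titrated antibody for 2 hours, then added to the wells for 2 hours at 25° C. Detection used Streptavidin HRP 1:5000 and TMB, stopped with 1M HCl, with absorbance read at 450 nm (reference 620 nm). IC50 was read off the curve.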

Antibody 136 [9] = target: T3, Antibody 136; assay: SPR control: PMA204 injected over Antibody 136 captured on Protein A, no cytokine
Experimental: as §3

human IL-12p40 [10] = target: T4, human IL-12p40 (human, UniProt P29460 23-328); assay: ELISA, coated IL-12p40
T4 construct: p40 monomer; also called p40 subunit
T4 sequence: T1 sequence 1
Experimental: as §4

human IL-23 [11] = target: T1, human IL-23; assay: SPR, IgG on Protein A
Experimental: as §2

human IL-12p40 [12] = target: T4, human IL-12p40; assay: SPR, IgG on Protein A
Experimental: as §2

human IL-12 [13] = target: T2, human IL-12; assay: SPR, IgG on Protein A
Experimental: as §2

human IL-23 [14] = target: T1, human IL-23; assay: SPR, IgG on Protein A; remark: listed apart in the source
Experimental: as §2

human IL-12 [15] = target: T2, human IL-12; assay: SPR, IgG on Protein A; remark: listed apart in the source
Experimental: as §2

- Kd (human IL-23 [1]): ≤ 0.0027 nM
- kon (human IL-23 [1]): 400000 M⁻¹ s⁻¹
- Kd (human IL-12 [2]): 0.065 nM
- koff (human IL-12 [2]): 0.00027 s⁻¹
- kon (human IL-12 [2]): 4.1e+06 M⁻¹ s⁻¹
- koff (human IL-23 [3]): < 1e-05 s⁻¹
B1: Antibody 183 (antibody, human IgG1, kappa, V domains shown)
VH: QVQLVQSGAEVKKPGASVKVSCKASGYTLTDYYLHWVRQAPGQGLEWMGWIDPENGDTEYAPKFQGRVTMTTDTSTSTAYMELRSLRSDDTAVYYCNANKELRYFDVWGQGAMVTVSS
VL: EIVMTQSPATLSVSPGERATLSCRASQSISINLHWYQQKPGQAPRLLIYFASQSISGIPARFFGSGSGTEFTLTISSLQSEDFAVYYCQQSNSFPLTFGGGTKVEIKR
notes: also called CU-A6 as IgG

- binding result (Antibody 136 [4]): no binding
B2: PMA202 (antibody, V domains shown)
VH: QIQLVQSGPELKKPGETVKISCKASGYTFTNYGMNWVKQAPGKGLKWMGWINTYTGEPTYADDFKGRFAFSLETSASTAYLQINNFKNEDTATYFCARSLSTMITTTFAYWGQGTLVTVSS
VL: SIVMTQTPKFLLVSAGDRVTITCKASQSVSNDVAWYQQKPGQSPKLLIYYASNRYTGVPDRFTGSGYGTDFTFTISTVQAEDLAVYFCQQDYSSPYTFGGGTKLEIKR
notes: Murine hybridoma antibody, murine IgG1kappa

- EC50 (read off the curve) (human IL-12 [5]): ~0.02 µg/mL
- EC50 (read off the curve) (human IL-23 [6]): ~0.01 µg/mL
- IC50 (read off the curve) (human IL-23 [7]): ~0.6 µg/mL
- IC50 (read off the curve) (human IL-12 [8]): ~0.2 µg/mL
- binding result (Antibody 136 [9]): no binding
B3: PMA204 (antibody, V domains shown)
VH: EVQLQQSGADLVRSGASIKLSCTASGFNIKDYYMHWVKQRPEQGLEWIGWIDPENGDTEYAPKFQGKATMTADTSSNTAYLQLSSLTSEDTAVYYCNACKELRYFDVWGAGTTVTVSS
VL: DIVLTQSPATLSVTPGDSVSLSCRASQSISINLHWYQQKSHESPRLLIKFASQSISGIPSRFSGYGSGTDFTLSINSVETEDFGRYFCQQSNSWPLTFGAGTKLELKR
notes: as for B2

- EC50 (read off the curve) (human IL-12p40 [10]): ~0.03 µg/mL
- IC50 (read off the curve) (human IL-23 [7]): ~1 µg/mL
- Kd (human IL-23 [11]): 0.0446 nM
- koff (human IL-23 [11]): 0.000114 s⁻¹
- kon (human IL-23 [11]): 2.55e+06 M⁻¹ s⁻¹
- Kd (human IL-12p40 [12]): 0.0663 nM
- koff (human IL-12p40 [12]): 7.12e-05 s⁻¹
- kon (human IL-12p40 [12]): 1.07e+06 M⁻¹ s⁻¹
- Kd (human IL-12 [13]): 0.0477 nM
- koff (human IL-12 [13]): 6.45e-05 s⁻¹
- kon (human IL-12 [13]): 1.36e+06 M⁻¹ s⁻¹
- Kd (human IL-23 [14]): 0.0513 nM
- koff (human IL-23 [14]): 0.000146 s⁻¹
- kon (human IL-23 [14]): 2.85e+06 M⁻¹ s⁻¹
- Kd (human IL-12 [15]): 0.0795 nM
- koff (human IL-12 [15]): 0.000132 s⁻¹
- kon (human IL-12 [15]): 1.67e+06 M⁻¹ s⁻¹
- IC50 (read off the curve) (human IL-12 [8]): ~0.4 µg/mL
B4: Antibody 1 (antibody, human IgG1, kappa, V domains shown)
VH: B3 VH
VL: B3 VL
notes: Chimeric PMA204, human IgG1/kappa
